Experiments:
[1] = biological target: M2GHTGKS (influenza A virus, A/chicken/HongKong/SF1/03 (H9N2))
[2] = biological target: M2HTGEKS (influenza A virus, A/chicken/California/1002a/00 (H6N2))
[3] = biological target: M2KTGEKS (influenza A virus, A/Quail/Arkansas/16309-7/94 (H7N3NSA))
[4] = biological target: M2LTGEKS (influenza A virus, A/Hong Kong/1074/99 (H9N2))
[5] = biological target: M2LTGS (influenza A virus, A/Hong Kong/156/97 (H5N1))
[6] = biological target: M2LTKGS (influenza A virus, A/Hong Kong/542/97 (H5N1))
[7] = biological target: M2PHTGS (influenza A virus, A/chicken/HongKong/YU427/03 (H9N2))
[8] = biological target: M2TDGEKS (influenza A virus, A/chicken/Pennsylvania/13552-1/98 (H7N2NSB))
[9] = biological target: M2TGE (influenza A virus, A/DK/ST/5048/2001 (H3N8))
[10] = biological target: M2TGEKS (influenza A virus, A/Canada/rv504/2004 (H7N3))
[11] = biological target: M2GHTGKS peptide conjugated with BSA (influenza A virus, A/chicken/HongKong/SF1/03 (H9N2)); assay: peptide-BSA ELISA
[12] = biological target: M2HTGEKS peptide conjugated with BSA (influenza A virus, A/chicken/California/1002a/00 (H6N2)); assay: peptide-BSA ELISA
[13] = biological target: M2KTGEKS peptide conjugated with BSA (influenza A virus, A/Quail/Arkansas/16309-7/94 (H7N3NSA)); assay: peptide-BSA ELISA
[14] = biological target: M2LTGEKS-BSA conjugate (influenza A virus, A/Hong Kong/1074/99 (H9N2)); assay: peptide-BSA ELISA
[15] = biological target: M2LTGS peptide conjugated with BSA (influenza A virus, A/Hong Kong/156/97 (H5N1)); assay: peptide-BSA ELISA
[16] = biological target: M2LTKGS peptide conjugated with BSA (influenza A virus, A/Hong Kong/542/97 (H5N1)); assay: peptide-BSA ELISA
[17] = biological target: M2PHTGS peptide conjugated with BSA (influenza A virus, A/chicken/HongKong/YU427/03 (H9N2)); assay: peptide-BSA ELISA
[18] = biological target: M2TDGEKS peptide conjugated with BSA (influenza A virus, A/chicken/Pennsylvania/13552-1/98 (H7N2NSB)); assay: peptide-BSA ELISA
[19] = biological target: M2TGEK-BSA conjugate (influenza A virus, A/Netherlands/33/03 (H7N7)); assay: peptide-BSA ELISA
[20] = biological target: M2 peptide (influenza A virus, A/Hong Kong/1/68 (H3N2)); assay: ELISA on peptide, Ab 10 µg/ml
[21] = biological target: M2GHTGKS peptide conjugated with BSA (influenza A virus, A/chicken/HongKong/SF1/03 (H9N2)); assay: peptide-BSA ELISA; legend: EC50 > 10^-8M: -
[22] = biological target: M2HTGEKS peptide conjugated with BSA (influenza A virus, A/chicken/California/1002a/00 (H6N2)); assay: peptide-BSA ELISA; legend: EC50 > 10^-8M: -
[23] = biological target: M2KTGEKS peptide conjugated with BSA (influenza A virus, A/Quail/Arkansas/16309-7/94 (H7N3NSA)); assay: peptide-BSA ELISA; legend: EC50 > 10^-8M: -
[24] = biological target: M2LTGEKS-BSA conjugate (influenza A virus, A/Hong Kong/1074/99 (H9N2)); assay: peptide-BSA ELISA; legend: EC50 > 10^-8M: -
[25] = biological target: M2LTGS peptide conjugated with BSA (influenza A virus, A/Hong Kong/156/97 (H5N1)); assay: peptide-BSA ELISA; legend: EC50 > 10^-8M: -
[26] = biological target: M2LTKGS peptide conjugated with BSA (influenza A virus, A/Hong Kong/542/97 (H5N1)); assay: peptide-BSA ELISA; legend: EC50 > 10^-8M: -
[27] = biological target: M2PHTGS peptide conjugated with BSA (influenza A virus, A/chicken/HongKong/YU427/03 (H9N2)); assay: peptide-BSA ELISA; legend: EC50 > 10^-8M: -
[28] = biological target: M2TDGEKS peptide conjugated with BSA (influenza A virus, A/chicken/Pennsylvania/13552-1/98 (H7N2NSB)); assay: peptide-BSA ELISA; legend: EC50 > 10^-8M: -
[29] = biological target: M2TGEK-BSA conjugate (influenza A virus, A/Netherlands/33/03 (H7N7)); assay: peptide-BSA ELISA; legend: EC50 > 10^-8M: -
[30] = biological target: M2-BSA conjugate (influenza A virus, A/Hong Kong/1/68 (H3N2)); assay: peptide-BSA ELISA (++ EC50<10^-9M; + 10^-9M<EC50<10^-8M)
[31] = biological target: M2DLTGS peptide conjugated with BSA (influenza A virus, A/Hong Kong/485/97 (H5N1)); assay: as above
[32] = biological target: M2EG peptide conjugated with BSA (influenza A virus, A/New York/687/1995 (H3N2)); assay: as above
[33] = biological target: M2FG peptide conjugated with BSA (influenza A virus, A/X-31 (H3N2)); assay: as above
[34] = biological target: M2KGENS peptide conjugated with BSA (influenza A virus, A/Turkey/VA/158512/02 (H7N2)); assay: as above
[35] = biological target: M2SG peptide conjugated with BSA (influenza A virus, A/swine/Tennessee/25/77 (H1N1)); assay: as above
[36] = biological target: M2TES peptide conjugated with BSA (influenza A virus, A/Viet Nam/1203/2004 (H5N1)); assay: as above
[37] = biological target: M2TGE-BSA conjugate (influenza A virus, A/DK/ST/5048/2001 (H3N8)); assay: as above
[38] = biological target: M2TGEKS peptide conjugated with BSA (influenza A virus, A/Canada/rv504/2004 (H7N3)); assay: as above
[39] = biological target: M2TGS-BSA conjugate (influenza A virus, A/chicken/Shanghai/F/98 (H9N2)); assay: as above

mouse anti-M2 antibody 14C2
0.001 to 0.01 µM: EC50 [31] | EC50 [38]
< 10%: % of O.D. on M2 (SEQ ID NO:1) [1] | % of O.D. on M2 (SEQ ID NO:1) [2] | % of O.D. on M2 (SEQ ID NO:1) [3] | % of O.D. on M2 (SEQ ID NO:1) [4] | % of O.D. on M2 (SEQ ID NO:1) [5] | % of O.D. on M2 (SEQ ID NO:1) [6] | % of O.D. on M2 (SEQ ID NO:1) [7] | % of O.D. on M2 (SEQ ID NO:1) [8] | % of O.D. on M2 (SEQ ID NO:1) [9] | % of O.D. on M2 (SEQ ID NO:1) [10]
> 0.01 µM: EC50 [11] | EC50 [12] | EC50 [13] | EC50 [14] | EC50 [15] | EC50 [16] | EC50 [17] | EC50 [18] | EC50 [19] | EC50 [21] | EC50 [22] | EC50 [23] | EC50 [24] | EC50 [25] | EC50 [26] | EC50 [27] | EC50 [28] | EC50 [29]
1.97 OD450: ELISA(OD450) [20]
< 0.001 µM: EC50 [30] | EC50 [32] | EC50 [33] | EC50 [34] | EC50 [35] | EC50 [36] | EC50 [37] | EC50 [39]

— patent US20090162366A1
